The text below walks through data of paper PMC5587766, “Towards designer organelles by subverting the peroxisomal import pathway” (Nature Communications, 2017).

Where no end group is shown, it is not given here.

The target in assay [1] is T1, AtPEX5C N601A (Arabidopsis thaliana, UniProt Q9FMA3, N601A).
T1 construct: made in house; host or cells: E. coli BL21-Gold (DE3)
T1 sequence (Q9FMA3 340-728 N601A): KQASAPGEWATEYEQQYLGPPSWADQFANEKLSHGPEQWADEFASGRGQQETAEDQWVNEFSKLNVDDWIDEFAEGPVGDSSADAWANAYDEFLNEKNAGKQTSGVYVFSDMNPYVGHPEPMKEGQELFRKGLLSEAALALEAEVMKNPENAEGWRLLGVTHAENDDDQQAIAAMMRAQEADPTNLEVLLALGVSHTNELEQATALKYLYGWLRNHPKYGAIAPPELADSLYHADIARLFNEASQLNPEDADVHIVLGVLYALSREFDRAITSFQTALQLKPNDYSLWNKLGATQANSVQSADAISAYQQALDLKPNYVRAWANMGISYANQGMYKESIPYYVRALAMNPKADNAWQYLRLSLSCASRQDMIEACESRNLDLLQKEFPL
Kind of assay: Pull down of binding peptides (Co-NTA, LC-MS), AtPEX5C N601A. To be noted: […] protein, 500 nM each peptide, pH 8.0, 4 °C, 1 h, semi-quantitative. From the text: (§1) The chemical space that can be covered by all possible variants of the receptor and signal sequence is vast (e.g., combined randomization of the two C-terminal PTS1 residues and just six residues within AtPEX5C would result in a library size of 2.6 × 10^10 variants of peptide and protein), which makes the development of an assay for a PEX5*-PTS1* pair problematic. We reduced the dimensionality of this search by designing modifications to the PEX5 component and rapidly surveying which peptide sequences could be bound by each mutated receptor (Fig. 1a). Site-directed variants of a His6-tagged A. thaliana PEX5 PTS1-binding domain (residues 340–728, AtPEX5C)[16], selected by analysis of known crystal structures, were expressed in Escherichia coli. The purified proteins were incubated with a library of pentapeptides, representing known PTS1 and putative PTS1* sequences. After capture of the receptor-peptide complexes on cobalt affinity resin, the bound peptides were eluted and identified by liquid chromatography-mass spectrometry (LC-MS) analysis. […]
(§2) Each peptide sub-library was analyzed using the LC-MS method listed above and an identical chromatographic run in which the mass spectrometer provided automated MS/MS data, using collisional induced fragmentation in the quadrupole. […]

The next assay deals with T2, wild-type AtPEX5C (Arabidopsis thaliana, UniProt Q9FMA3).
T2 construct: made in house; host or cells: E. coli BL21-Gold (DE3)
T2 sequence (Q9FMA3 340-728): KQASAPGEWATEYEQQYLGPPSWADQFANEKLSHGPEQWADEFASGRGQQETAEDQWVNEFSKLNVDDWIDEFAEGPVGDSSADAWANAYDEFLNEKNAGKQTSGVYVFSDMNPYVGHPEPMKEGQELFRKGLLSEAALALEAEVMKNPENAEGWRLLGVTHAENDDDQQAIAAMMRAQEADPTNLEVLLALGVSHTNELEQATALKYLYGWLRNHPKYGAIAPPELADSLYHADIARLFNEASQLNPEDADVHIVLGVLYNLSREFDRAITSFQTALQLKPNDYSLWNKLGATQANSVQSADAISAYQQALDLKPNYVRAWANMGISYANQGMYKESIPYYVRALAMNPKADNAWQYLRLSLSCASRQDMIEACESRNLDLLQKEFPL
Kind of assay: Pull down of binding peptides (Co-NTA, LC-MS), wild-type AtPEX5C. To be noted: […] protein, 500 nM each peptide, pH 8.0, 4 °C, 1 h, semi-quantitative.
Description: as §1, §2

Assay [2] deals with T3, AtPEX5C D505H (Arabidopsis thaliana, UniProt Q9FMA3, D505H).
T3 construct: made in house; host or cells: E. coli BL21-Gold (DE3)
T3 sequence (Q9FMA3 340-728 D505H): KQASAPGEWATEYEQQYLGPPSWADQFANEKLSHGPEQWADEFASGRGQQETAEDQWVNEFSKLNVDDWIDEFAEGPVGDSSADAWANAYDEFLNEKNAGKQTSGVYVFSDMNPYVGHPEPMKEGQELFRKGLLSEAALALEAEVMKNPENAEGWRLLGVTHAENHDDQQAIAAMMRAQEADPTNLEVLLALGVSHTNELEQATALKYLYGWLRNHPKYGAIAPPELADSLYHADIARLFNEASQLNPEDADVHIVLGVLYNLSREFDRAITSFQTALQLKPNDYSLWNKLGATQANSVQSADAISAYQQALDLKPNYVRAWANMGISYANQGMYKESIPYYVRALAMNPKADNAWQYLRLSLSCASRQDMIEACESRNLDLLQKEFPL
Kind of assay: Pull down of binding peptides (Co-NTA, LC-MS), AtPEX5C D505H. The conditions noted are these: […] protein, 500 nM each peptide, pH 8.0, 4 °C, 1 h, semi-quantitative.
Description: as §1, §2

Another assay addresses lissamine-YQSYY. The assay is described as follows: fluorescence polarisation; fluorescence anisotropy; AtPEX5C or variant serially diluted (from a 40 µM solution) against 100 nM lissamine-labelled peptide tracer; 20 mM HEPES, 150 mM NaCl, pH 7.5; gelatine-blocked 384-well plates; 25 °C, 20 min; fitted to a 1:1 binding model. For orientation: Fluorescence polarisation rises when a labelled molecule tumbles more slowly, as on binding a larger partner.

The target of assay [3] is endogenous PhypaPEX5 (Physcomitrella patens (endogenous in P. patens cells)).
Assay [4] deals with T4, His6-tagged A. thaliana PEX5 PTS1-binding domain (residues 340-728), wild type (Arabidopsis thaliana, UniProt Q9FMA3 340-728).
T4 construct: Written 'His6-AtPEX5 (340-728)', in pET-28b; also called AtPEX5C; wild-type AtPEX5C; source: E. coli BL21-Gold (DE3), purified (Co-NTA)
T4 sequence (looked up): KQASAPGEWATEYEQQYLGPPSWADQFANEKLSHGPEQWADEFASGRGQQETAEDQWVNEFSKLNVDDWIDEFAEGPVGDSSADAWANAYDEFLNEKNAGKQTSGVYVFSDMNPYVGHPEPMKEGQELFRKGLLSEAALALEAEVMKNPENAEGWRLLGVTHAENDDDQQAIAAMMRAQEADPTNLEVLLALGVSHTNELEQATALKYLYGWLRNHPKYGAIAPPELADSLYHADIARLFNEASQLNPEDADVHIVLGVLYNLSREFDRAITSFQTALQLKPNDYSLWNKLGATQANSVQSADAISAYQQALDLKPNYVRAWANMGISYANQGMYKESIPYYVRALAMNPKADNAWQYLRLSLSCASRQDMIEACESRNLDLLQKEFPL
The assay is described as follows: fluorescence polarisation; fluorescence anisotropy; AtPEX5C or variant serially diluted (from a 40 µM solution) against 100 nM lissamine-labelled peptide tracer; 20 mM HEPES, 150 mM NaCl, pH 7.5; gelatine-blocked 384-well plates; 25 °C, 20 min; fitted to a 1:1 binding model. The conditions noted are these: both partners purified.

For assay [5], the target named is T5, AtPEX5C D505H-D507T-N601A (Arabidopsis thaliana, UniProt Q9FMA3 340-728, D505H | D507T | N601A).
T5 construct: Made by site-directed mutagenesis of His6-AtPEX5 (340-728) in pET-28b; source: E. coli BL21-Gold (DE3), purified (Co-NTA)
T5 sequence (looked up): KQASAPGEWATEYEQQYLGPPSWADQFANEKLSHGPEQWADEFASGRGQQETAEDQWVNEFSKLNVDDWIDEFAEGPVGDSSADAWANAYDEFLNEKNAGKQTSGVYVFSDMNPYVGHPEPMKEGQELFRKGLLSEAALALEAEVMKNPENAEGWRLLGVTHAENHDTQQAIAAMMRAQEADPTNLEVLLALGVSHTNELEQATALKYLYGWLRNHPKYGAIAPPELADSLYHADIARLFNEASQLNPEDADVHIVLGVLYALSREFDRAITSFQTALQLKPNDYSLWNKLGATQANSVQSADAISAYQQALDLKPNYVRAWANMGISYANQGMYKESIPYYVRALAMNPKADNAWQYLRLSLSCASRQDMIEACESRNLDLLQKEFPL
The assay is described as above. To be noted: both partners purified.

Assay [6] deals with T6, AtPEX5C N601A (Arabidopsis thaliana, UniProt Q9FMA3 340-728, N601A).
T6 construct: Made by site-directed mutagenesis of His6-AtPEX5 (340-728) in pET-28b; also called N601A variant; source: E. coli BL21-Gold (DE3), purified (Co-NTA)
T6 sequence (looked up): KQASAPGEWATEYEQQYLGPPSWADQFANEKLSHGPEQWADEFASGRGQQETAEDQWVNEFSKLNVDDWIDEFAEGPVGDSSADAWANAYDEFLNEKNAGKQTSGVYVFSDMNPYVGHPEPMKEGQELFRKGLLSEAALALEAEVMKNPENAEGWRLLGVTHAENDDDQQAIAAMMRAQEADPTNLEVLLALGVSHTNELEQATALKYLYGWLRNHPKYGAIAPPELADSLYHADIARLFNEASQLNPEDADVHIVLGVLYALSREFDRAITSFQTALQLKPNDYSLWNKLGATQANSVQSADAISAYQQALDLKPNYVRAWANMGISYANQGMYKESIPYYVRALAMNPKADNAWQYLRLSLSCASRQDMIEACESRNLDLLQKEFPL
Described as above. The conditions noted are these: both partners purified.

The target in a further assay is T7, AtPEX5C D505H-N601A (Arabidopsis thaliana, UniProt Q9FMA3 340-728, D505H | N601A).
T7 construct: Made by site-directed mutagenesis of His6-AtPEX5 (340-728) in pET-28b; source: E. coli BL21-Gold (DE3), purified (Co-NTA)
T7 sequence (looked up): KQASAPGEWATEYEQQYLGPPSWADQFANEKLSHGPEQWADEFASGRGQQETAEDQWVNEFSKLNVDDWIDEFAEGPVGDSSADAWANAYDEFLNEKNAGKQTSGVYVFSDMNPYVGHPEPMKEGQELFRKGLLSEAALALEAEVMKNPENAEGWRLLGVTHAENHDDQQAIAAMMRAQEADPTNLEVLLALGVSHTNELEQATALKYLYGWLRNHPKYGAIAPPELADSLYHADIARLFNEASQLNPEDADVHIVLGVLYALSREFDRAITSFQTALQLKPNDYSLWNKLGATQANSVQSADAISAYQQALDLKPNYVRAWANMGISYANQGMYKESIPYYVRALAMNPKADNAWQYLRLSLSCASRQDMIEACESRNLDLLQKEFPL
The assay is described as above. To be noted: both partners purified.

Assay [7] has as its target T8, AtPEX5C D505H (Arabidopsis thaliana, UniProt Q9FMA3 340-728, D505H).
T8 construct: Made by site-directed mutagenesis of His6-AtPEX5 (340-728) in pET-28b; also called D505H variant of AtPEX5C; source: E. coli BL21-Gold (DE3), purified (Co-NTA)
T8 sequence (looked up): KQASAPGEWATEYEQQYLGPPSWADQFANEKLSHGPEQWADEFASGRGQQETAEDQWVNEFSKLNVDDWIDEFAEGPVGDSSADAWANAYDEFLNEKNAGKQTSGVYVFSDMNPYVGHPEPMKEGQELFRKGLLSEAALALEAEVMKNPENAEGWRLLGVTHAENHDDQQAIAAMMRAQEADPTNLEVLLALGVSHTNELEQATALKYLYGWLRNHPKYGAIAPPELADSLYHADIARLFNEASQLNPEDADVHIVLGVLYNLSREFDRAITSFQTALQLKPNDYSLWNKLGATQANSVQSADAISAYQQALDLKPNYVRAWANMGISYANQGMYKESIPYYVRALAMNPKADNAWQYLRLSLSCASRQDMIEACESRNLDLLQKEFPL
Described as above. The conditions noted are these: both partners purified.

With “dansyl-YQSYY [member of dansyl-YQSXX pentapeptide library]”, the “pulled down from library” value on AtPEX5C N601A [1] is “bound”; at wild-type AtPEX5C it was “not pulled down”; at AtPEX5C D505H [2] it was “bound”.
For the molecule “dansyl-YQSFY [member of dansyl-YQSXX pentapeptide library]”, the “pulled down from library” value is “bound” at AtPEX5C N601A [1], “not pulled down” on wild-type AtPEX5C and “bound” at AtPEX5C D505H [2].
As to “His6-tagged A. thaliana PEX5 PTS1-binding domain (residues 340-728), wild type (from UniProt Q9FMA3 340-728) (domain or fragment)”, the Kd (as a rule, the constant that tells how readily two partners part at equilibrium) with lissamine-YQSYY worked out at 2700 nM.
With RFP-PTS1, the peroxisomal import: localisation score (1-5) of RFP-PTS1 in P. patens cells expressing PEX5* without GFP-PTS1* (score (scale 1-5)) in assay [3] was 4.32.

B1: lissamine-YQSKL (peptide)
peptide: {lissamine rhodamine B sulfonyl}-YQSKL
notes: model PTS1 pentapeptide; also called lissamine-labelled YQSKL; model PTS1 peptide; source: synthetic peptide (Fmoc solid-phase synthesis, reverse phase HPLC)
In the case of B1, the Kd in [4] worked out at 1.1 nM; in [5], 97 nM; in the assay with AtPEX5C N601A [6] it was 22 nM; in the assay with AtPEX5C D505H-N601A it was 108 nM; with AtPEX5C D505H [7], 30 nM.

B2: lissamine-YQSYY (peptide)
peptide: {lissamine rhodamine B sulfonyl}-YQSYY
notes: pentapeptide found in the YQSXX library screen; also called lissamine-labelled YQSYY; source: synthetic peptide (Fmoc solid-phase synthesis, reverse phase HPLC)
Turning to B2, the Kd in [5] amounted to 110 nM; with AtPEX5C N601A [6], 2300 nM; with AtPEX5C D505H-N601A, 603 nM; with AtPEX5C D505H [7], 960 nM.
